Laboratory results: US11419921B2, “Methods of treating neurological disorders” (EnClear Therapies, Inc., priority 2018, dated 2022)

Experiments:
(GR)10 [1] = assay: (GR)10 digestion with immobilized proteases in human cerebrospinal fluid (CSF); format: biochemical; details: immobilized enzyme
Method: (§1) Protease solutions were prepared at 2 mg/mL in sterile PBS with calcium, magnesium and 200 μL ([…]) were applied to 100 μL of pre-washed NHS-activated agarose resin in 0.8 mL centrifuge columns. Reactions were left 1.5 hour at room temperature with end-to-end mixing, after which resins were washed with 12 resin volumes of PBS. Unreacted sites were blocked with 500 μL of 1M ethanolamine for 15 minutes at room temperature and resins were further washed with 24 resin volumes. Resins were stored at 4 degrees in 500 μL of PBS containing 0.05% sodium azide as preservative.
200 μM of (GR)10 were diluted in human cerebrospinal fluid (CSF) and 400 μL were applied to each immobilized proteases. The reaction was incubated 5 minutes at room temperature with end-to-end mixing. Columns were spun down 1 minute at 1,000 Xg to recover digested GR dipeptides. Columns were washed with 12 resin volumes of PBS. The procedure was repeated with 60 minutes digestion time. 100 μL of each samples were transferred to a clean tube, flash-frozen and subsequently used for LC/MS quantification of GR repeats of different lengths. The remaining 300 μL of each samples were flash-frozen and used to assess neuron toxicity.
(GR)10 was digested with exemplary immobilized enzymes as described above in the subsection titled “(GR)10 digestion with immobilized proteases in CSF” of Example 3. Clostripain experiments were conducted with and without DTT activation (no DTT during digestion). The results obtained after 5 and 60 minutes of reaction time are presented in Table 25 and shown in FIG. 5 (commercial and in-house immobilized trypsin), FIG. 6 (immobilized elastase, FIG. 7A (immobilized clostripain without DTT) and FIG. 7 (immobilized clostripain with 2.5 mM DTT).

(GR)10 [2] = assay: (GR)10 digestion with immobilized proteases (NHS-activated agarose resin) in PBS; format: biochemical; details: normalized
Method: as §1
110 μL of 50 μM (GR)10 dipeptide repeats prepared in PBS were added to each immobilized protease and incubated 5 minutes at room temperature with end-to-end mixing. Columns were spun down 1 minute at 1,000 Xg to recover digested GR dipeptides. Columns were washed with 110 μL of PBS to increase (GR)10 recovery. This procedure was repeated with 60 minutes digestion time. 100 μL of each samples were transferred to a new tube and 5 μL of 10% TFA followed by 300 μL of Dilution Solution were added. The reaction mixtures were analyzed by LC/MS to determine the concentration of GR repeats of different lengths.

[3] = resin wash from 60 min reaction

B1: Trypsin: protease cleaving at the carboxyl side of lysine or arginine; in Table 21 also immobilized in-house on NHS-activated agarose resin (protein, UniProt P00760 24-246, looked up)
Serine protease 1: IVGGYTCGANTVPYQVSLNSGYHFCGGSLINSQWVVSAAHCYKSGIQVRLGEDNINVVEGNEQFISASKSIVHPSYNSNTLNNDIMLIKLKSAASLNSRVASISLPTSCASAGTQCLISGWGNTKSSGTSYPDVLKCLKAPILSDSSCKSAYPGQITSNMFCAGYLEGGKDSCQGDSGGPVVCSGKLQGIVSWGSGCAQKNKPGVYTKVCNYVSWIKQTIASN
What does the source list for B1?
(GR)1 (normalized uM) ((GR)10 [1]; 5 min reaction): 1153.4 µM; (GR)2 (normalized uM) ((GR)10 [1]; 5 min reaction): 9.0 µM; (GR)3 (normalized uM) ((GR)10 [1]; 5 min reaction): 0.0 µM; (GR)4 (normalized uM) ((GR)10 [1]; 5 min reaction): 0.0 µM; (GR)5 (normalized uM) ((GR)10 [1]; 5 min reaction): 0.0 µM; (GR)6 (normalized uM) ((GR)10 [1]; 5 min reaction): 0.0 µM; (GR)8 (normalized uM) ((GR)10 [1]; 5 min reaction): 0.0 µM; (GR)10 (normalized uM) ((GR)10 [1]; 5 min reaction): 0.0 µM; (GR)1 (normalized uM) ((GR)10 [1]; 60 min reaction): 1182.3 µM; (GR)2 (normalized uM) ((GR)10 [1]; 60 min reaction): 0.0 µM; (GR)3 (normalized uM) ((GR)10 [1]; 60 min reaction): 0.0 µM; (GR)4 (normalized uM) ((GR)10 [1]; 60 min reaction): 0.0 µM; (GR)5 (normalized uM) ((GR)10 [1]; 60 min reaction): 0.0 µM; (GR)6 (normalized uM) ((GR)10 [1]; 60 min reaction): 0.0 µM; (GR)8 (normalized uM) ((GR)10 [1]; 60 min reaction): 0.0 µM; (GR)10 (normalized uM) ((GR)10 [1]; 60 min reaction): 0.0 µM; (GR)1 ((GR)10 [2]; Immobilized - 5 min reaction): 308.8 µM; (GR)2 ((GR)10 [2]; Immobilized - 5 min reaction): 0.0 µM; (GR)3 ((GR)10 [2]; Immobilized - 5 min reaction): 0.0 µM; (GR)4 ((GR)10 [2]; Immobilized - 5 min reaction): 0.0 µM; (GR)5 ((GR)10 [2]; Immobilized - 5 min reaction): 0.0 µM; (GR)6 ((GR)10 [2]; Immobilized - 5 min reaction): 0.0 µM; (GR)8 ((GR)10 [2]; Immobilized - 5 min reaction): 0.0 µM; (GR)10 ((GR)10 [2]; Immobilized - 5 min reaction): 0.0 µM; (GR)1 ((GR)10 [2]; immobilized - 60 min reaction): 321.8 µM; (GR)2 ((GR)10 [2]; immobilized - 60 min reaction): 0.0 µM; (GR)3 ((GR)10 [2]; immobilized - 60 min reaction): 0.0 µM; (GR)4 ((GR)10 [2]; immobilized - 60 min reaction): 0.0 µM; (GR)5 ((GR)10 [2]; immobilized - 60 min reaction): 0.0 µM; (GR)6 ((GR)10 [2]; immobilized - 60 min reaction): 0.0 µM; (GR)8 ((GR)10 [2]; immobilized - 60 min reaction): 0.0 µM; (GR)10 ((GR)10 [2]; immobilized - 60 min reaction): 0.0 µM; (GR)1 ((GR)10 [2]; resin wash from 5 min reaction): 140.2 µM; (GR)2 ((GR)10 [2]; resin wash from 5 min reaction): 0.0 µM; (GR)3 ((GR)10 [2]; resin wash from 5 min reaction): 0.0 µM; (GR)4 ((GR)10 [2]; resin wash from 5 min reaction): 0.0 µM; (GR)5 ((GR)10 [2]; resin wash from 5 min reaction): 0.0 µM; (GR)6 ((GR)10 [2]; resin wash from 5 min reaction): 0.0 µM; (GR)8 ((GR)10 [2]; resin wash from 5 min reaction): 0.0 µM; (GR)10 ((GR)10 [2]; resin wash from 5 min reaction): 6.6 µM; (GR)1 ((GR)10 [2]; [3]): 144.6 µM; (GR)2 ((GR)10 [2]; [3]): 0.0 µM; (GR)3 ((GR)10 [2]; [3]): 0.0 µM; (GR)4 ((GR)10 [2]; [3]): 0.0 µM; (GR)5 ((GR)10 [2]; [3]): 0.0 µM; (GR)6 ((GR)10 [2]; [3]): 0.0 µM; (GR)8 ((GR)10 [2]; [3]): 0.0 µM; (GR)10 ((GR)10 [2]; [3]): 0.0 µM

B2: Clostripain: sulfhydryl protease cleaving at the C-terminus of arginine residues; in Table 23 also immobilized on agarose resin (protein)
chain: NKNQKVTIMYYCDADNNLEGSLLNDIEEMKTGYKDSPNLNLIALVDRSPRYSSDEKVLGEDFSDTRLYKIEHNKANRLDGKNEFPEISTTSKYEANMGDPEVLKKFIDYCKSNYEADKYVLIMANHGGGAREKSNPRLNRAICWDDSNLDKNGEADCLYMGEISDHLTEKQSVDLLAFDACLMGTAEVAYQYRPGNGGFSADTLVASSPVVWGPGFKYDKIFDRIKAGGGTNNEDDLTLGGKEQNFDPATITNEQLGALFVEEQRDSTHANGRYDQHLSFYDLKKAESVKRAIDNLAVNLSNENKKSEIEKLRGSGIHTDLMHYFDEYSEGEWVEYPYFDVYDLCEKINKSENFSSKTKDLASNAMNKLNEMIVYSFGDPSNNFKEGKNGLSIFLPNGDKKYSTYYTSTKIPHWTMQSWYNSIDTVKYGLNPYGKLSWCKDGQDPEINKVGNWFELLDSWFDKTNDVTGGVNHYQW
B2 was tested. Which “(GR)1 (normalized uM)” value ((GR)10 [1]; 5 min reaction) did it give?
Its value is 11.2 µM.

And the “(GR)2 (normalized uM)” value ((GR)10 [1]; 5 min reaction)?
Its value is 10.0 µM.

And the “(GR)3 (normalized uM)” value ((GR)10 [1]; 5 min reaction)?
Its value is 0.0 µM.

What about the “(GR)4 (normalized uM)” value ((GR)10 [1]; 5 min reaction) of the same molecule?
Its value is 0.0 µM.

And the “(GR)5 (normalized uM)” value ((GR)10 [1]; 5 min reaction)?
The value was 8.5 µM.

What about the “(GR)6 (normalized uM)” value ((GR)10 [1]; 5 min reaction) of the same molecule?
The value was 0.0 µM.

And the “(GR)8 (normalized uM)” value ((GR)10 [1]; 5 min reaction)?
The value was 0.0 µM.

And the “(GR)10 (normalized uM)” value ((GR)10 [1]; 5 min reaction)?
Its value is 395 µM.

And the “(GR)1 (normalized uM)” value ((GR)10 [1]; 60 min reaction)?
Its value is 106.2 µM.

What about the “(GR)2 (normalized uM)” value ((GR)10 [1]; 60 min reaction) of the same molecule?
The value was 99.2 µM.

And the “(GR)3 (normalized uM)” value ((GR)10 [1]; 60 min reaction)?
Its value is 72.3 µM.

What about the “(GR)4 (normalized uM)” value ((GR)10 [1]; 60 min reaction) of the same molecule?
Its value is 84.7 µM.

What about the “(GR)5 (normalized uM)” value ((GR)10 [1]; 60 min reaction) of the same molecule?
Its value is 85.5 µM.

What about the “(GR)6 (normalized uM)” value ((GR)10 [1]; 60 min reaction) of the same molecule?
The value was 87 µM.

And the “(GR)8 (normalized uM)” value ((GR)10 [1]; 60 min reaction)?
The value was 58.4 µM.

What about the “(GR)10 (normalized uM)” value ((GR)10 [1]; 60 min reaction) of the same molecule?
Its value is 0 µM.

What about the “(GR)1” value ((GR)10 [2]; Immobilized - 5 min reaction) of the same molecule?
The value was 296.5 µM.

What about the “(GR)2” value ((GR)10 [2]; Immobilized - 5 min reaction) of the same molecule?
The value was 0.0 µM.

And the “(GR)3” value ((GR)10 [2]; Immobilized - 5 min reaction)?
Its value is 0.0 µM.

What about the “(GR)4” value ((GR)10 [2]; Immobilized - 5 min reaction) of the same molecule?
The value was 0.0 µM.

What about the “(GR)5” value ((GR)10 [2]; Immobilized - 5 min reaction) of the same molecule?
The value was 0.0 µM.

What about the “(GR)6” value ((GR)10 [2]; Immobilized - 5 min reaction) of the same molecule?
Its value is 0.0 µM.

And the “(GR)8” value ((GR)10 [2]; Immobilized - 5 min reaction)?
The value was 0.0 µM.

What about the “(GR)10” value ((GR)10 [2]; Immobilized - 5 min reaction) of the same molecule?
Its value is 0.0 µM.

What about the “(GR)1” value ((GR)10 [2]; immobilized - 60 min reaction) of the same molecule?
The value was 305.9 µM.

And the “(GR)2” value ((GR)10 [2]; immobilized - 60 min reaction)?
Its value is 0.0 µM.

What about the “(GR)3” value ((GR)10 [2]; immobilized - 60 min reaction) of the same molecule?
The value was 0.0 µM.

What about the “(GR)4” value ((GR)10 [2]; immobilized - 60 min reaction) of the same molecule?
Its value is 0.0 µM.

What about the “(GR)5” value ((GR)10 [2]; immobilized - 60 min reaction) of the same molecule?
The value was 0.0 µM.

What about the “(GR)6” value ((GR)10 [2]; immobilized - 60 min reaction) of the same molecule?
Its value is 0.0 µM.

What about the “(GR)8” value ((GR)10 [2]; immobilized - 60 min reaction) of the same molecule?
The value was 0.0 µM.

And the “(GR)10” value ((GR)10 [2]; immobilized - 60 min reaction)?
The value was 0.0 µM.

What about the “(GR)1” value ((GR)10 [2]; resin wash from 5 min reaction) of the same molecule?
The value was 140.2 µM.

And the “(GR)2” value ((GR)10 [2]; resin wash from 5 min reaction)?
Its value is 0.0 µM.

What about the “(GR)3” value ((GR)10 [2]; resin wash from 5 min reaction) of the same molecule?
The value was 0.0 µM.

And the “(GR)4” value ((GR)10 [2]; resin wash from 5 min reaction)?
The value was 0.0 µM.

And the “(GR)5” value ((GR)10 [2]; resin wash from 5 min reaction)?
Its value is 0.0 µM.

What about the “(GR)6” value ((GR)10 [2]; resin wash from 5 min reaction) of the same molecule?
The value was 0.0 µM.

And the “(GR)8” value ((GR)10 [2]; resin wash from 5 min reaction)?
Its value is 0.0 µM.

And the “(GR)10” value ((GR)10 [2]; resin wash from 5 min reaction)?
The value was 0.0 µM.

What about the “(GR)1” value ((GR)10 [2]; [3]) of the same molecule?
The value was 155.8 µM.

What about the “(GR)2” value ((GR)10 [2]; [3]) of the same molecule?
Its value is 0.0 µM.

What about the “(GR)3” value ((GR)10 [2]; [3]) of the same molecule?
The value was 0.0 µM.

And the “(GR)4” value ((GR)10 [2]; [3])?
Its value is 0.0 µM.

And the “(GR)5” value ((GR)10 [2]; [3])?
The value was 0.0 µM.

And the “(GR)6” value ((GR)10 [2]; [3])?
The value was 0.0 µM.

And the “(GR)8” value ((GR)10 [2]; [3])?
The value was 0.0 µM.

What about the “(GR)10” value ((GR)10 [2]; [3]) of the same molecule?
Its value is 0.0 µM.
